Laboratory results: the supplement of paper PMC12764529
± gives the half width of the 95% confidence interval.

Tests used:
[1] = folding stability dG unfold from chymotrypsin proteolysis; higher = more stable
Summary of the method: (§1)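 Unfolding free energy was derived, per protease or combined, against a sequence-predicted unfolded-state K50 and a shared folded-state K50, starting from K50 inferred by Bayesian fitting of sequencing counts. Digestion with trypsin and chymotrypsin was carried out on designed mini-proteins under 80 residues without cysteine in a PA-tagged cDNA display construct. Only designs with AlphaFold2 dimer inter-PAE above 15 were kept.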

[2] = folding stability dG unfold (combined trypsin and chymotrypsin); higher = more stable
Summary of the method: as §1

[3] = folding stability dG unfold from trypsin proteolysis; higher = more stable
Protocol: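 Folding stability of de novo designed mini-proteins (<80 aa, no Cys; designed by TrROS, TrMRF, ProteinMPNN and the joint model) was measured by cDNA display proteolysis with trypsin and chymotrypsin. Each protease was used at 11 concentrations in a threefold dilution series plus a no-protease condition. K50 was inferred by Bayesian fitting of sequencing counts, and dG unfold was derived against a sequence-predicted unfolded-state K50 (Tsuboyama et al. method). Sequences shown include variable-length N-terminal GS-type padding (SAGGSAGG...) inside a display construct carrying a PA tag. Rows were kept only if the AF2 dimer inter-PAE was >15, to exclude likely homo-oligomers.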

Sequence | folding stability dG unfold [1] [kcal/mol] | folding stability dG unfold [2] [kcal/mol] | folding stability dG unfold [3] [kcal/mol]
ADPDVKVEVEFEVLPDGRLRVTAVDPDTGVVVEVEAPVDGAGPVTVRVRVRVFDPETGEVSTFEAEFTLPLS [r1_45_TrMRF] | 4.33 ± 0.15 | 4.14 ± 0.17 | 3.71 ± 0.12
AFTITGIEVTYDPATNTVTVTATVTGPDGSTATVTLTLTLPAPPPPVTTVTRTETRTLPDGTTVTVTETFTS [r1_125_TrROS_Hall] | 4.09 ± 0.048 | 3.43 ± 0.13 | 2.21 ± 0.037
DDNQEYEYENPGGMKMRVEYNPSTGNMKVEMEPVPPVPPIPPIMIPLDLTPEQANRLINELQDLGIPIMVGS [r1_242_TrROS] | 1.33 ± 0.086 | 1.16 ± 0.16 | 0.906 ± 0.06
DTVTIVVEGMSEEEVLEKARAAAEELAKEGKTVEIVVKLSPEALKKAGVEKVEEVEDEETGLLVIKVEVKPS [r1_467_TrROS_Hall] | 0.599 ± 0.07 | 0.684 ± 0.28 | 1.04 ± 0.13
DVVIDIDELKKAIEKAKPGEVLELTVKVKDKATGKEYTVRVTVTVNPDGKTVTVTVVNEETGEVIETITLPS [r1_165_TrROS_Hall] | 5.23 ± 0.22 | > 6 | 3.94 ± 0.21
EEWYIIQIKIEYWGPNGKEREIDIMVLIPPEQMTPDQLKQVKEIAREIAENLQENGYNIEINVEIIPLDDMS [r1_221_TrROS] | 3.9 ± 0.23 | > 6 | 3.07 ± 0.26
EKKTLTVLIEVPPEKLEEALARALELAKALPPGQKLEIEIVNEDGTVVRVTVTVDENGEIHIDVEVLPRPPS [r1_350_TrROS_Hall] | 2.36 ± 0.16 | 2.23 ± 0.16 | 1.76 ± 0.073
SADKIKIPPGFQIFGPNGQPIRPGTEVEVEDIEPHPGGGEFMFEVKIKSPDDGEEHNWPIMIRFPPAGKSAG [r14_258_TrROS] | -0.395 ± 0.24 |  | 0.755 ± 0.13
SAGGDPAPLEVDIEMDPDNGRIRIEIRAGGSKVIYEYEIPLDGYEFKVKIIVVDGKIVIEIEFEMPDSAGGS [r16_631_TrROS] | 3.81 ± 0.27 |  | 4.27 ± 0.55
SAGGKRKIMIPMDEMEEKFGIPPNQTVEELAKYINPNYKIEVDNVRYEKDENGKERYWVKVEIEPPKDSAGG [r13_723_TrROS] | -0.136 ± 0.61 |  | 0.739 ± 0.25
SAGGSAGGKKKKPPPLVVVKIEITNPNGEKKELTLVFPSLEDAKAAIEALLPPGYTAKVEIKPLSAGGSAGG [r6_289_TrROS_Hall] | 3.69 ± 0.37 |  | 3.16 ± 0.35
SAGGSAGGSAGEEEVEPPPEVVVRVRFFDKDGKEVLEVEMSLDELRALAEAGLVEVELEPSAGGSAGGSAGG [r11_159_TrROS_Hall] | 2.63 ± 0.33 |  | 2.97 ± 0.25
SAGGSAGGSAGGGKYRLKLRFTFTNAAGGSSELELEVEIEIPPPPLIAPDADGHWYSLTSAGGSAGGSAGGS [r10_330_TrMRF] | 5.31 ± 0.65 |  | 3.86 ± 0.27
SAGGSPTIDITPEVFEELKKKGVTPDKESFNITASLPDGTVYEGTITLPPSNPNIPFEYKPVDKPLESAGGS [r16_497_JUSTAS] |  | -0.515 ± 0.21 | -0.22 ± 0.061
SAGGSRQVIEWEFKDPKNGKPFEISIEYDEENGVPMVEIRDRNGEPNAVVPVPPDNADEALEKFGISAGGSA [r2_115_TrROS] |  | < -1 | -0.903 ± 0.46
SAGGSVRIESIKWKRPPNGMFKIEIHVEAPPGDPDDPEKQERQAESVAKPIAKELQDEFGFKPIGPSAGGSA [r2_306_TrROS] |  | < -1 | -0.774 ± 0.99
SAGGWMPIEDLKDIPENMPPGYKITIRNPGNGQEGTFEYNKDGGIKIEDPGKPVEIPPGAYIDEIEPSAGGS [r8_162_TrROS] |  | -0.679 ± 0.71 | 0.654 ± 0.12
SAGGWRLNINFPPDNIEKIVEKLRDEFPGWEIKPDKIEYNPDDGQYTIPIEVKSKNPRAAEKIQDAIQSAGG [r13_539_TrROS] |  | -0.955 ± 0.39 | 0.154 ± 0.14
SAGKFKITSIKPLYVTTPADAPPVKKPYLVIELDAEDPEKARELAEKLTGAPVLVVEDPETGTATIVIDSAG [r5_907_TrMRF] |  | -0.357 ± 0.17 | 0.121 ± 0.082
SAGKITIEYDKETNTVTVTIEIEIEVINEDGSIEKKKITITVKVKVDKKTNKVELLSLDEILKKLEELLSAG [r5_239_TrROS_Hall] |  | 3.81 ± 0.36 | 2.92 ± 0.2
SAGMYTVLETRTVNGRTVTLIDVPERPLTVTVTVDRDPSGRRTVTVNVEGEVKEILEKANPDIDELTLESAG [r5_933_JUSTAS] |  | -0.15 ± 0.2 | 0.456 ± 0.096
SAGPKIVEVKPSNGKLEITVEIPVPGAPVLFLNPAKNATIESDPNGRITITLDSEGEYEIIIGNPVFDSAGG [r19_227_TrMRF] |  | 0.0526 ± 0.087 | 0.394 ± 0.026
SAGSMPVESTSERKLEKDGVATVTTTSYPDASPGGTDTVTVTLHPGESESATTTYTQPPGAPPLTVSLESAG [r5_47_JUSTAS] |  | < -1 | -1.05 ± 0.27

Sequence | folding stability dG unfold [1] [kcal/mol] | folding stability dG unfold [2] [kcal/mol] | folding stability dG unfold [3] [kcal/mol]
SAGVEELAEKIAKELEGEDFEVEAEVDPEKGTITVVVKTPDYVVVKEIYIDPKNDKPVMDVKVFKPNESAGG [r19_2_TrMRF] |  | -0.954 ± 0.7 | 0.241 ± 0.059
SAGWRRIPPGRPIRIRLKGNGEEITIPIPEGAEVEPDPDNNNVMIWFREDGKEWSMNFKNGRIDDIEPVSAG [r5_22_TrROS] |  | < -1 | -0.194 ± 0.32
SALPPEEVKKLARDIMREFNPDNGFKPEDVDVDPNEGTIMVDWRMPDPNGKRHRMPFQIQVDKDGKIKISAG [r14_183_TrROS] |  | < -1 | -0.306 ± 0.36
SAMTLTVPPSLSATDAAGNAIPPSLSIEVEKVTPLPETGKVVAEVKITDPETGETTTRPLTITLPPGEASAG [r14_258_JUSTAS] |  | 0.506 ± 0.19 | 0.827 ± 0.048
SDILERAAEKGVDEIHIMLQPNQIELIKRLQDRGAKIEIHFPPGVPKEYLKKLPGFKVDKVEWMPPDDMPSA [r9_671_TrROS] |  | < -1 | -0.928 ± 0.56
SDVNIKPEKVDPNGIFTVEIPVDNNNVDKLREIINEIFPNFEPTEVKPNPESGYHEIIMRVPDGKAFEFSSA [r9_1164_TrROS] |  | -0.55 ± 0.14 | -0.141 ± 0.04
SEEIAKKIADELKKAGYEVVKVEVTYDKETKKVTIKIVVKDKKTNEYYKITIKLNEETGEIVEVKIEKLPSA [r9_814_TrROS_Hall] | 4.14 ± 0.41 |  | 2.96 ± 0.42
SGMTTSLGKSTTTTLPDGTTVKTEVKLTRPSSGTVVVTTDTTTVTPGTGTTTTTPTTTVVPVPPGVPGLLSA [r9_709_JUSTAS] |  | < -1 | -0.522 ± 0.051
SGNSLNEKGESYPITVKAPDPNVTPEQVKAALEKAGAKVLEIKRPPKGSTLTVSVEITDPEKVKEAFEKLSA [r9_1154_JUSTAS] |  | < -1 | -1.05 ± 0.44
SGSPSTPVTITVEFPPRLTTVLYREPTRPPLGYLLVPEPSRTETITVPVSEVAAVKAELEPRGMTVTVTASA [r9_167_JUSTAS] |  | < -1 | -0.69 ± 0.33
SITASAKHPEEAIELAEKLKKELEKLLGPDTKVPITLYDDKGNPATFPITLKKKKPKVIYDPEKGLYRDESA [r9_596_TrMRF] |  | -0.332 ± 0.55 | 0.042 ± 0.25
SKITITIEEEEVEVNGKKYKVFKVTATVTVTEYKFKDGKLVEKKTKTKTITVRIVLDKNGKIVKIEPLPDSA [r9_829_TrROS_Hall] |  | > 6 | 4.33 ± 0.32
SKMKIKIEITEVYPEGKTIVVKAEIEIDGKTIEMEMTIKLPNGEEYRIRMRFVRRKDGRLEMEIEVEKLPSA [r9_255_TrROS_Hall] |  | > 6 | 5.33 ± 0.51
SKVLELLKELAKKLGATITEVKVEKLEDGTVKVTATITVTYLDKNGKPVKTETLTLTITVKNGKITEIKLSA [r9_519_TrROS_Hall] |  | > 6 | 4.66 ± 0.55
SMGLTKKERVITIVKEAYAKNPDKKITLRYADIEATTPEKMSAEEIEKLLKEVTGIKDIKIYPVKPDDPESA [r9_738_TrMRF] |  | < -1 | 0.0464 ± 0.25
SMKALVLELPEEKVVVVFETDELKVVPIPVKDKEEAKEKIEELVKELEEETGKKPEVVVVEVDEDEELPVSA [r9_786_TrMRF] |  | < -1 | -0.0691 ± 0.16
SMKIKITAKTEEEREKAKKLLEEIAKELNIEIKIEKIEVIPKPKPEKVELSEEEKKKLKELEEEGLIEEESA [r9_472_TrROS_Hall] |  | < -1 | 0.578 ± 0.059
SMKKTLTEKIEGVLPEEEAERYLEEYIASRPWAEKVEVKPEIKPIFDEKGNKLVKVKTTITVTISEEKLKSA [r9_1006_JUSTAS] |  | < -1 | -0.776 ± 0.95
SNPWQIKFRNPNRPVEIPIQMNPDDGYVGISVRMRKPGKPKTHTITYKVKNIEDLLDHLEDLPPGFEIEPSA [r9_713_TrROS] |  | -0.0771 ± 0.45 | 0.435 ± 0.27
SPAVRPLSAEFYDPRYTVEAPVYESEEGEPVLNIRFLVPEYELEIPFPLEDPEAVFESFAEDGVSLTLTDSA [r9_384_TrMRF] |  | -0.723 ± 0.17 | 0.0201 ± 0.088
SPIVTDLPPKEATRVEVEALVEELEAKGEPPREVVVYDPSRGVPLATIPVTSREELLAAVEAGRPFRVLLSA [r9_718_JUSTAS] |  | < -1 | -0.697 ± 0.31
SSVITNKGSLTITKTTLPDGTVVITITDPNGGRTTTITIPADSDGEATVTPTGSGNAATSTIPVSSLKLSSA [r9_1071_JUSTAS] |  | 0.183 ± 0.21 | 0.505 ± 0.096
VEFEEIETTFTLAAPGGSLVDVDLKTTKKDPKNGKVYIEGTLTTVDPGGVPRTLPTKRVVSPEELKQLVSES [r1_371_JUSTAS] |  | -0.318 ± 0.49 | 0.143 ± 0.19
